Assay results reported in the supplement of paper PMC10567573.

B1: VPS39 (parent)
chain: LRLENNHCHIEESEHVLKKAHKYS

Variants of: B1
Assay: protein stability index of a GFP-peptide fusion (GPS, HEK-293T) (PSI 1-6); higher = more stable
Conditions: c terminus: a fixed tail appended
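Note: lentivirally expressed fusions sorted by FACS into six bins by GFP to DsRed ratio, PSI derived from sequencing read proportions per bin multiplied by bin number.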

Variant	protein stability index
LRLENRHCHIEESEHVLKKAHKYS [N6R]	2.49
LRLENVHCHIEESEHVLKKAHKYS [N6V]	2.13
LRLENEHCHIEESEHVLKKAHKYS [N6E]	3.13
LRLENAHCHIEESEHVLKKAHKYS [N6A]	2.72
LRLENMHCHIEESEHVLKKAHKYS [N6M]	1.87
LRLENSHCHIEESEHVLKKAHKYS [N6S]	2.55
LRLENWHCHIEESEHVLKKAHKYS [N6W]	1.97
LRLENIHCHIEESEHVLKKAHKYS [N6I]	2.33
LRLENGHCHIEESEHVLKKAHKYS [N6G]	2.66
LRLENLHCHIEESEHVLKKAHKYS [N6L]	2.58
LRLENPHCHIEESEHVLKKAHKYS [N6P]	2.12
LRLENFHCHIEESEHVLKKAHKYS [N6F]	1.75
LRLENTHCHIEESEHVLKKAHKYS [N6T]	2.35
LRLENQHCHIEESEHVLKKAHKYS [N6Q]	2.63
LRLENCHCHIEESEHVLKKAHKYS [N6C]	2.44
LRLENDHCHIEESEHVLKKAHKYS [N6D]	2.54
LRLENKHCHIEESEHVLKKAHKYS [N6K]	3.49
LRLENHHCHIEESEHVLKKAHKYS [N6H]	3.16
LRLENYHCHIEESEHVLKKAHKYS [N6Y]	2.23
LRLEVNHCHIEESEHVLKKAHKYS [N5V]	1.48
LRLEENHCHIEESEHVLKKAHKYS [N5E]	2.46
LRLEWNHCHIEESEHVLKKAHKYS [N5W]	1.74
LRLEDNHCHIEESEHVLKKAHKYS [N5D]	1.94
LRLEHNHCHIEESEHVLKKAHKYS [N5H]	1.91

Variant	protein stability index
LRLEANHCHIEESEHVLKKAHKYS [N5A]	2.23
LRLEKNHCHIEESEHVLKKAHKYS [N5K]	3.08
LRLESNHCHIEESEHVLKKAHKYS [N5S]	1.98
LRLECNHCHIEESEHVLKKAHKYS [N5C]	2.22
LRLEMNHCHIEESEHVLKKAHKYS [N5M]	2.33
LRLEQNHCHIEESEHVLKKAHKYS [N5Q]	2.18
LRLEYNHCHIEESEHVLKKAHKYS [N5Y]	2.37
LRLEPNHCHIEESEHVLKKAHKYS [N5P]	2.29
LRLELNHCHIEESEHVLKKAHKYS [N5L]	2.23
LRLEFNHCHIEESEHVLKKAHKYS [N5F]	1.27
LRLERNHCHIEESEHVLKKAHKYS [N5R]	2.77
LRLEINHCHIEESEHVLKKAHKYS [N5I]	2.22
LRLETNHCHIEESEHVLKKAHKYS [N5T]	2.48
LRLEGNHCHIEESEHVLKKAHKYS [N5G]	1.91
LYLENNHCHIEESEHVLKKAHKYS [R2Y]	2.79
LDLENNHCHIEESEHVLKKAHKYS [R2D]	4.26
LVLENNHCHIEESEHVLKKAHKYS [R2V]	2.44
LFLENNHCHIEESEHVLKKAHKYS [R2F]	2.62
LGLENNHCHIEESEHVLKKAHKYS [R2G]	4.24
LCLENNHCHIEESEHVLKKAHKYS [R2C]	3.15
LHLENNHCHIEESEHVLKKAHKYS [R2H]	3.55
LNLENNHCHIEESEHVLKKAHKYS [R2N]	3.55
LQLENNHCHIEESEHVLKKAHKYS [R2Q]	4.11
LMLENNHCHIEESEHVLKKAHKYS [R2M]	2.66

Variant	protein stability index
LPLENNHCHIEESEHVLKKAHKYS [R2P]	4.55
LELENNHCHIEESEHVLKKAHKYS [R2E]	4.59
LKLENNHCHIEESEHVLKKAHKYS [R2K]	3.12
LALENNHCHIEESEHVLKKAHKYS [R2A]	3.68
LTLENNHCHIEESEHVLKKAHKYS [R2T]	3.81
LILENNHCHIEESEHVLKKAHKYS [R2I]	2.54
LSLENNHCHIEESEHVLKKAHKYS [R2S]	3.62
LLLENNHCHIEESEHVLKKAHKYS [R2L]	2.54
LWLENNHCHIEESEHVLKKAHKYS [R2W]	2.15
LREENNHCHIEESEHVLKKAHKYS [L3E]	4.58
LRWENNHCHIEESEHVLKKAHKYS [L3W]	3.01
LRHENNHCHIEESEHVLKKAHKYS [L3H]	3.6
LRMENNHCHIEESEHVLKKAHKYS [L3M]	3.13
LRSENNHCHIEESEHVLKKAHKYS [L3S]	3.33
LRPENNHCHIEESEHVLKKAHKYS [L3P]	3.7
LRRENNHCHIEESEHVLKKAHKYS [L3R]	4.51
LRGENNHCHIEESEHVLKKAHKYS [L3G]	4.43
LRQENNHCHIEESEHVLKKAHKYS [L3Q]	4.06
LRAENNHCHIEESEHVLKKAHKYS [L3A]	3.55
LRKENNHCHIEESEHVLKKAHKYS [L3K]	4.32
LRDENNHCHIEESEHVLKKAHKYS [L3D]	3.12
LRNENNHCHIEESEHVLKKAHKYS [L3N]	3.17
LRIENNHCHIEESEHVLKKAHKYS [L3I]	2.62
LRYENNHCHIEESEHVLKKAHKYS [L3Y]	2.56

Variant	protein stability index
LRFENNHCHIEESEHVLKKAHKYS [L3F]	2.09
LRVENNHCHIEESEHVLKKAHKYS [L3V]	2.38
LRTENNHCHIEESEHVLKKAHKYS [L3T]	3.06
LRLENNHCHIIESEHVLKKAHKYS [E11I]	2.12
LRLENNHCHIGESEHVLKKAHKYS [E11G]	2.72
LRLENNHCHILESEHVLKKAHKYS [E11L]	2.86
LRLENNHCHIAESEHVLKKAHKYS [E11A]	3.06
LRLENNHCHIKESEHVLKKAHKYS [E11K]	2.79
LRLENNHCHIHESEHVLKKAHKYS [E11H]	2.52
LRLENNHCHIDESEHVLKKAHKYS [E11D]	2.65
LRLENNHCHICESEHVLKKAHKYS [E11C]	1.99
LRLENNHCHIFESEHVLKKAHKYS [E11F]	1.75
LRLSNNHCHIEESEHVLKKAHKYS [E4S]	2.71
LRLPNNHCHIEESEHVLKKAHKYS [E4P]	2.83
LRLHNNHCHIEESEHVLKKAHKYS [E4H]	3.32
LRLLNNHCHIEESEHVLKKAHKYS [E4L]	2.35
LRLCNNHCHIEESEHVLKKAHKYS [E4C]	2.44
LRLDNNHCHIEESEHVLKKAHKYS [E4D]	3.12
LRLNNNHCHIEESEHVLKKAHKYS [E4N]	3.92
LRLGNNHCHIEESEHVLKKAHKYS [E4G]	2.41
LRLKNNHCHIEESEHVLKKAHKYS [E4K]	3.45
LRLANNHCHIEESEHVLKKAHKYS [E4A]	2.68
